According to US5674712:

Biological target: sub-unit alpha of human chorionic gonadotropin (human) (UniProt P01215)
Assay: SPR (BIACORE), alpha hCG fixed to the sensor

- Kdiss, fold against MAb 5E8: 300 times
B1: antibody scFv5E8 specific for sub-unit alpha of human chorionic gonadotropin (scFv)
scFv: QVQLQQSGAELMKPGASVKLTASCSGFSIKDTYMHWVKQRPEQGLEWIGRIDPANGNTKYDPKFQGKATITADTSSNTAYLQLSSLTSEDTAVYYCHRFEFAMDYWGQGTTVTVSSGGGGSGGGGSGGGGSDIQGTQSPASLVVSLGQRATISCRASKSVSASGYSYVNWYQQKPGQPPKLLIYLASNLESGVPARFSGSGSGTDFTLNIHPVEEEDAATYYCQHSRELPLTFGAGTKLEISMEELMIEGR
